Data from paper PMC9482650, “Quantitative fragmentomics allow affinity mapping of interactomes” (Nature Communications, 2022).

Key:
Assay in all cases: holdup assay
Parameters in all cases: key: below the threshold = too weak to quantify, mostly under pKd 3.1 to 4
Details in all cases: plain residues with an end cap or a label only (N-terminal biotin on a linker: ado-ado)
[1] = target: DLG4_1, P78352
[2] = target: GIPC2, Q8TF65
[3] = target: T1, PDZD7_3, Q9H5P4
T1 sequence (Q9H5P4 857-944, limits assumed, looked up): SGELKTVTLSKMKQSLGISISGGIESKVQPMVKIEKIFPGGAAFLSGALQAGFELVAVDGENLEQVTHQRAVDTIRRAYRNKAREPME

[4] = target: SCRIB_3, Q14160
[5] = target: GRID2IP_2, A4D2P6
[6] = target: T2, DFNB31_1, Q9P202
T2 sequence (Q9P202 135-233, limits assumed, looked up): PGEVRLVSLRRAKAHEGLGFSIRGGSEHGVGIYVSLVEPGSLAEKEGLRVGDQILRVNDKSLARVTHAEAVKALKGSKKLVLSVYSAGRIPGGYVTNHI

[7] = target: T3, DFNB31_2, Q9P202
T3 sequence (Q9P202 274-371, limits assumed, looked up): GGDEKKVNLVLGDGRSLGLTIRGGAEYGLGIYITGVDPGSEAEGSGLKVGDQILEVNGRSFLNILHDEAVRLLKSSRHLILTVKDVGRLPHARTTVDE

[8] = target: T4, LNX2_2, Q8N448
T4 sequence (Q8N448 334-432, limits assumed, looked up): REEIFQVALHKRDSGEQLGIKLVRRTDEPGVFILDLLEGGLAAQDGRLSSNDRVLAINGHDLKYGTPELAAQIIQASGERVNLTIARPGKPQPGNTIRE

[9] = target: GRASP, Q7Z6J2
[10] = target: LDB3, O75112
[11] = target: T5, SNTG2, Q9NY99
T5 sequence (Q9NY99 68-166, limits assumed, looked up): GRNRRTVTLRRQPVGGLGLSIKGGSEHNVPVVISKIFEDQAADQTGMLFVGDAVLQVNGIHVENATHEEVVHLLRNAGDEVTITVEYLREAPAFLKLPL

[12] = target: T6, CARD11, Q9BXL7
T6 sequence (Q9BXL7 662-765, limits assumed, looked up): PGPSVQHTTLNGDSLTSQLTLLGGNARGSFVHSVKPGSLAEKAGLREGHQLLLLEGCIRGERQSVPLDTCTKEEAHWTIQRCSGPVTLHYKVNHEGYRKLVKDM

[13] = target: NHERF4_1, Q86UT5-2
[14] = target: T7, MPP2, Q14168
T7 sequence (Q14168 180-250, limits assumed, looked up): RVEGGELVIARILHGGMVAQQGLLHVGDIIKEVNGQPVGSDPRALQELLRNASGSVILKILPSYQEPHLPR

[15] = target: T8, SHANK1, Q9Y566
T8 sequence (Q9Y566 658-767, limits assumed, looked up): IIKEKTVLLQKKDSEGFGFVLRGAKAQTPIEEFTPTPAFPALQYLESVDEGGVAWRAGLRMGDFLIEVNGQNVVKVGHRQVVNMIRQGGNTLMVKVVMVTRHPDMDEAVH

[16] = target: T9, PTPN13_1, Q12923
T9 sequence (Q12923 1088-1188, limits assumed, looked up): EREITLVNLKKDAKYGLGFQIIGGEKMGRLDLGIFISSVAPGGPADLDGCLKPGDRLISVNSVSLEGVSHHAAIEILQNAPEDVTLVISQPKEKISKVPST

[17] = target: MAGI1_1, Q96QZ7
[18] = target: T10, GRIP1_4, Q9Y3R0
T10 sequence (Q9Y3R0 467-571, limits assumed, looked up): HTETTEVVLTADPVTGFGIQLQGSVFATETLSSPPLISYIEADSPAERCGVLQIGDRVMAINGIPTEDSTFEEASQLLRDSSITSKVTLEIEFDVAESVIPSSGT

[19] = target: IL16_1, Q14005
[20] = target: Inadl_9, Q8NI35
[21] = target: LNX1_1, Q8TBB1
[22] = target: MAGI2_6, Q86UL8
[23] = target: T11, PARD3B_1, Q8TEW8
T11 sequence (Q8TEW8 196-299, limits assumed, looked up): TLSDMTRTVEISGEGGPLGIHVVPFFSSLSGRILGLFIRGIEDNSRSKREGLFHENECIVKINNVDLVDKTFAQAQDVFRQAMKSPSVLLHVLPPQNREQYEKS

[24] = target: NHERF2_2, Q15599
[25] = target: T12, SIPA1L2, Q9P2F8
T12 sequence (Q9P2F8 945-1036, limits assumed, looked up): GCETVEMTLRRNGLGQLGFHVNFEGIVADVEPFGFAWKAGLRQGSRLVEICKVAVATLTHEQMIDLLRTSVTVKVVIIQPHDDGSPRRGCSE

Sequence of IL16_1, Q14005 (Q14005 210-306): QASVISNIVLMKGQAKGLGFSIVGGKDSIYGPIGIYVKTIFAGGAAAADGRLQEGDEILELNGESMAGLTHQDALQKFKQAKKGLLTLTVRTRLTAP
Sequence of GRASP, Q7Z6J2 (Q7Z6J2 96-193): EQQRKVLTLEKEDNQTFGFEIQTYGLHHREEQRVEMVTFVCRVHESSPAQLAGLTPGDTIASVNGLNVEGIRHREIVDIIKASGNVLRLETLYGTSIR
Sequence of NHERF4_1, Q86UT5-2 (Q86UT5 other isoform, or with tags, fused parts or gaps): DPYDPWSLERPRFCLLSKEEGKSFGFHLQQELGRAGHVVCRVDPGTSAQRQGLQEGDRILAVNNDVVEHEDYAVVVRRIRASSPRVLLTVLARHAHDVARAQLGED
Sequence of NHERF2_2, Q15599 (Q15599 142-238): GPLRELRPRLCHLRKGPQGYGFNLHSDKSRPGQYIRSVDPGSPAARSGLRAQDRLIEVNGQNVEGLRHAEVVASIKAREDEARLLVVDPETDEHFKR
Sequence of Inadl_9, Q8NI35 (Q8NI35 1530-1615): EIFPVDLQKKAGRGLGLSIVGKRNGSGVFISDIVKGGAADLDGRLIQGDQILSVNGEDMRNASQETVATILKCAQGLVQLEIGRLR
Sequence of GRID2IP_2, A4D2P6 (A4D2P6 272-370): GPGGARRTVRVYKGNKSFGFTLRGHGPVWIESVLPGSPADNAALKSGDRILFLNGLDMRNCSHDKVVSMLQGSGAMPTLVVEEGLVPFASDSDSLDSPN
Sequence of DLG4_1, P78352 (P78352 62-152): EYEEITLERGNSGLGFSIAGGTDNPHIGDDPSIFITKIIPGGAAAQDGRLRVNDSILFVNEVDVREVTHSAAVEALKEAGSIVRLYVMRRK
Sequence of LNX1_1, Q8TBB1 (Q8TBB1 261-371): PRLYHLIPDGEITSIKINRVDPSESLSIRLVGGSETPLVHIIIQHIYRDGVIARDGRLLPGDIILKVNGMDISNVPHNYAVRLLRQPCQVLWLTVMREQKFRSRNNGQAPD
Sequence of LDB3, O75112 (O75112 1-94): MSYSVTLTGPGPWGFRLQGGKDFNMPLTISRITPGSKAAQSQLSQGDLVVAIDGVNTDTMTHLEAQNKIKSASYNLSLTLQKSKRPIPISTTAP
Sequence of SCRIB_3, Q14160 (Q14160 999-1103): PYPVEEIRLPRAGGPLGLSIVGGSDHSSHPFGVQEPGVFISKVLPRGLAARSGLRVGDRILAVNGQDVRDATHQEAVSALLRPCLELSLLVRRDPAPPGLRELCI
Sequence of MAGI2_6, Q86UL8 (Q86UL8 1141-1229): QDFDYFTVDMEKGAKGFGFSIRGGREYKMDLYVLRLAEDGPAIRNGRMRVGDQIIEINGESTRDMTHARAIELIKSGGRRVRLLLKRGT
Sequence of GIPC2, Q8TF65 (Q8TF65 112-203): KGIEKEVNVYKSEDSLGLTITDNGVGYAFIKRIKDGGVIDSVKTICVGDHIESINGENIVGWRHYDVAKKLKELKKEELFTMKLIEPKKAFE
Sequence of MAGI1_1, Q96QZ7 (Q96QZ7 1-106): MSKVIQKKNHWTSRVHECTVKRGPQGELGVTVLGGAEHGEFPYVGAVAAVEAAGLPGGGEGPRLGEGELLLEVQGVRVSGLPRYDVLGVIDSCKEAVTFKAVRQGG

| Binder | pKd [1] | pKd [2] | pKd [3] | pKd [4] | pKd [5] | pKd [6] | pKd [7] | pKd [8] | pKd [9] | pKd [10] | pKd [11] | pKd [12] | pKd [13] | pKd [14] | pKd [15] | pKd [16] | pKd [17] | pKd [18] | pKd [19] | pKd [20] | further results |
| --- | --- | --- | --- | --- | --- | --- | --- | --- | --- | --- | --- | --- | --- | --- | --- | --- | --- | --- | --- | --- | --- |
| PLPPEEESWV [GAS2L2, Q8NHY3] | 4.03 | 4.2 | 4.32 | 4.99 | 4.06 | 4.46 | below the threshold | 5.07 | 4.23 | below the threshold | 4.24 | below the threshold | below the threshold | below the threshold | 4.62 | below the threshold | below the threshold | below the threshold | 5.24 | 4.34 | pKd [21]: below the threshold; pKd [22]: 5.88; pKd [23]: 3.95; pKd [24]: 4.62; pKd [25]: below the threshold |
| LVEEEEPMNL [HDAC7, Q8WUI4] | below the threshold | below the threshold | below the threshold | below the threshold | below the threshold | below the threshold | below the threshold | below the threshold | below the threshold | below the threshold | below the threshold | below the threshold | 3.57 | below the threshold | below the threshold | below the threshold | below the threshold | below the threshold | below the threshold | below the threshold | pKd [21]: below the threshold; pKd [22]: below the threshold; pKd [23]: below the threshold; pKd [24]: 3.5; pKd [25]: below the threshold |
| RSPVATATSC [DUSP5, Q16690] | below the threshold | 3.6 | 3.72 | 3.56 | 3.79 | below the threshold | below the threshold | 3.75 | below the threshold | below the threshold | below the threshold | below the threshold | 3.59 | below the threshold | 3.55 | below the threshold | below the threshold | below the threshold | below the threshold | below the threshold | pKd [21]: below the threshold; pKd [22]: below the threshold; pKd [23]: below the threshold; pKd [24]: below the threshold; pKd [25]: below the threshold |
| NISARRFTLC [FAM167B, Q9BTA0] | 4.35 | below the threshold | 3.88 | below the threshold | 4.21 | below the threshold | below the threshold | 5.39 | 4.36 | below the threshold | below the threshold | below the threshold | 4.27 | 3.82 | below the threshold | below the threshold | 3.59 | below the threshold | below the threshold | below the threshold | pKd [21]: 3.85; pKd [22]: below the threshold; pKd [23]: below the threshold; pKd [24]: below the threshold; pKd [25]: 3.73 |
